The target of data set [1] is POTATO HOMEOBOX1 (POTH1) (potato). Kind of data set: two-hybrid; Matchmaker system (Clontech), yeast strain pJ69-2A; StBELs in pACT-AD (GAL4 activation domain), KNOX proteins in pBridge (GAL4-binding domain); co-transformation, selection on -Leu/-Trp/-His/-Ade; lacZ induction quantified by β-galactosidase assay (Miller units), three replicate samples.
A further data set has as its target NTH1 (tobacco). The data set is described as above.
In another data set the target is T1, StBEL5-GST;POTH1-GST (Solanum tuberosum (potato);Solanum …, UniProt Q8LLE4;P93588 1-688;1-345, |).
T1 sequence 1: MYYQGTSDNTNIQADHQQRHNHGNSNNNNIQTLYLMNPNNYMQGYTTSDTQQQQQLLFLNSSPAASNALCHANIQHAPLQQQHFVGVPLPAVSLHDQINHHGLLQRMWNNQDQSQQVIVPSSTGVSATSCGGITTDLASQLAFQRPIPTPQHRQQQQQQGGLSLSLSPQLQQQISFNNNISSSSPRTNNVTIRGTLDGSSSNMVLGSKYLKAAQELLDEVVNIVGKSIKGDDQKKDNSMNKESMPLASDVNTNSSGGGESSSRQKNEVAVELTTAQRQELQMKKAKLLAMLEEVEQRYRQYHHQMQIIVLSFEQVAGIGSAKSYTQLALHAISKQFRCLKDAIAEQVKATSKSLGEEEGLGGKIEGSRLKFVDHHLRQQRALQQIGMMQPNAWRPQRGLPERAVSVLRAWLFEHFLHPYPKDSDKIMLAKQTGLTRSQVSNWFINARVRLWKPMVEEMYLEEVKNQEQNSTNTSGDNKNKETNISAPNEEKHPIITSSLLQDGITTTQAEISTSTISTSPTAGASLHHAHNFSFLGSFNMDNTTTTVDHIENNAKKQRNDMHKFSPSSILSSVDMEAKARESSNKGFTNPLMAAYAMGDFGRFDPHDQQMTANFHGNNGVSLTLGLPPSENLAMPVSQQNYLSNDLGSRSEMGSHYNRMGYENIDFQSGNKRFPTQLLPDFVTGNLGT
T1 sequence 2: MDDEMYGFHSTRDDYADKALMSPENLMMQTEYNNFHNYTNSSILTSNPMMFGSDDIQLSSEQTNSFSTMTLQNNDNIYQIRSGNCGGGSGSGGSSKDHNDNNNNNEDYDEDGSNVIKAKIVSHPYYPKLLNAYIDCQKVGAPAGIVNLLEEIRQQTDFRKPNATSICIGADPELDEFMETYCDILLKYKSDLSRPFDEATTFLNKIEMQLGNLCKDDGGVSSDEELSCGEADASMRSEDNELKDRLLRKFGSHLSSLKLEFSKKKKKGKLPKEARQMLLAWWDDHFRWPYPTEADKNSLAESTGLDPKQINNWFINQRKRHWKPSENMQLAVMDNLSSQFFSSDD
Kind of data set: EMSA; 2 mM Mg2+; 20 mM HEPES pH 7.5, 50 mM KCl, 2 mM MgCl2, 0.5 mM EDTA, 1 mM DTT, 10% glycerol, 0.5% Triton X-100, 20 ng/ul BSA, 50 ng/ul poly(dI-dC), 20 ul, on ice 60 min; 10. The settings on record: protein: recombinant;recombinant; tags: C-terminal GST;C-terminal GST; copies: 1;1; label: 3' biotin; blunt.

Turning to “StBEL33 (from UniProt M1C8Y5 1-505) (natural protein)”, the beta-galactosidase activity in data set [1] turned out to be 274 units.
As to “StBEL13 (from UniProt M1AMS7 1-738) (natural protein)”, the beta-galactosidase activity with NTH1 (tobacco) came out at 233 units.
As for StBEL6 (natural protein), the beta-galactosidase activity in the data set with NTH1 (tobacco) turned out to be 58 Miller units.
On the same count and under the same terms, the same measure for “StBEL31 (from UniProt M0ZWL8 1-423) (natural protein)”: 25 Miller units.

B1: StBEL34 bait (BEL34S/BEL34A) (dsDNA)
DNA 1: CCTTTCAATAAGATTATTGACGGTGACAATACTCGCCGTCAAA
DNA 2: TTTGACGGCGAGTATTGTCACCGTCAATAATCTTATTGAAAGG
Regarding B1, the binding result in the data set with StBEL5-GST;POTH1-GST was “binds”.
